The record followed here is the PETadex activity labels.

B1: unnamed (protein)
chain: MRACCAFNSTIPGDTMSLQLTKHFGLAALACAALMSLGAAAHAQSYQKGPNPTASALERAGPFATRTTDVSRYSVTNFGGGTIYYPTAAGQYGAIAVSPGYTASKSTVTFWGERLSSHGFVVIVIDTLTTLDQPASRARQLKAALDKVVSLSRSSSSPIYNKVDPNRLAVMGHSMGGGGTLQAAKDNPGLKAAIPMAPWNTVTNWSAVTVPTLVMACQADAIAPVANHAVPFYNSMSANKKSYIEMAGDDHLCVMNGGGHDATLGKMGIAWMKRFVDNDTRYSPFLCGLPYQATVNTSEVSVHRNNCPY
B2: unnamed (protein)
chain: MPTPNTRPTPFGRLLQVTLAVSALALSLGAQAQQTGADPTTAILEAPAGPLAVSNVKVATPSGFGSGTVYYPTTGKGPYGLVSVTPGFVEGEWAINWLGPLLASHGFVVVTIGTTTILDAPTSRAKQMMAALKQVTALSATKTSPFAGKVDPSRLAVMGHSMGGGGSLDAARDNPNLKAAIPLAPWETTKDYSKITVPTLIVSCDSDVIAPVADHANKFYDSLTPTLTKALVEMKGAGHFCTNGTAIPATRTLVGKYSISWLKRFVDGDTRYSPFLCGAPHQADLAGSLISTYKGNCPY
B3: unnamed (protein)
chain: MIEIRSSYKSKKTNCKRSVMPSMITKKAALPFVISSALLFSASAFAITPPSDPDPDPTPCEGDCDFTRGPDPTESMLEARSGPFNVDTVNVSSRVSGFGGGTIHYPTNTSGQMGAIVVAPGFVSPESSIGWWGPQLASHGFIVMTIATNSLYDQPDSRRDQLEAGLDYLISQSNSSGSDISGMVDSSRLGAMGWSMGGGGALQLAADGRLSAAIPLAPYNSSRNDFDDITTPTLIFACENDAVAAVRSHASPFYNDIPGSTDKAFVEINGGAHSCANGGNTNNSLLSKYGVSWMKLHLDQDQRYSQFLCGPNHESDRSISEYRGTCPY
B4: unnamed (protein)
chain: MEISKKKCLIGLGLMAMAMGVQAQTNPLAKGPDPTNASIQANGPFAVTTVTISNANANGYGGATVYVPTAAGTYALVAFSPGFTARQDTIAVIGRRLATHGFVVATIDTNSTLDLPDSRGTQLLAALRSVAALNAGNTAAAGKIDTTRLVVTGHSMGGGGTLFASRTNTAIKAGVPIAPFSSGVKNFATPVPQFILGGEVDNVAPVDEHSIPFFNGLPNATPKVYAELNGEDHFFVSESTPNQPASKFQIAWIKRFADNDARYTQFVNSAGVAVERNNGRLSDGRLESF
B5: unnamed (protein)
chain: MFGKFPFARAGLAVGALLLSAAAVAQTNPYQRGPDPTVASLEATRGSFATSSFTVSRPSGYGAGTVYYPTNAGGKVGAIAVVPGFTARQSSINWWGARLASHGFVVITIDTNSTLDQPSSRSSQQMAALRQVVTLAGTTSSPIYNKVDTARLGVMGWSMGGGGSLISAKNNPTLRAAAPQAPWAQESFSTVTVPTLIISCESDTIAPNNTHSFPFYNQMTRNKKANLVINGGSHSCANSGNADAGLIGKYGVAWMKRFMDDDTRFSKFLCGAEHTADLSKRAIEAYKENCPY
B6: unnamed (protein)
chain: MRSAKTSVLAAVALGAAALLALGACGGSNNPYIRGDDPTEESLSRPGPYAVKSLTEGDRNGPGYGGGTIYYPTDAEPPFAAVAIVPGFTSPQSSIASWGPFLASHGIVAMTIDTNSTFDQPDTRAAALLDALESIKGENTRAGSPLKGKLDTNRLGVMGWSMGGGGTLIAAKDNPELKAAISLCPWNPGSSYSNTKVPTLMIASQADPLAGVSGHSQPFYDSIPDSTPKMLFEVAGGDHFVANNPANGNGQVGRYGLSWLKRFLEGDERYRPFLLEKPPGASDYRTNVY
B7: unnamed (protein)
chain: MQHSPSTSRTRQRVTGILASLAVAVGVGIAAGPAAQGADNPHERGPDPTESSIEASRGSYSISERNVSSLVSGFGGGTIYYPTTTRDGDFGAVVISPGYTGTERTISWLGPRLASQGFVVLTMATNSIYDQPDSRARQLQAALDYLTDSSPVADRIDADRLALMGHSMGGGGTLRAVDDNPDIKAAIPMTPWHVKKNWSSVSTPTLIFGAENDSVARHETHAEPFYESFDRDLQKAYLELDGASHFAPNSSNTTIAKYSISWLKRFVDDDTRYTQFLCPGPSTGWFSDVEKYESSCPF
B8: unnamed (protein)
chain: MKTSRTRTATTTLTRLARLALAAAALLLSAAAQAQSSNPYQRGPDPTAASLEASAGPFAVSTTTVSSASGFGGGTIYYPTNTEGPFAAIAVVPGFTATQSSISWWGPRLASHGFVVITIDTNSTFDQPASRATQLMAALNYVVSLSNTSSSPIYGKVDSNRLGVMGHSMGGGGTLIAARDNPTLKAAIPLAPWNSSTNFSSVTVPTLIIACENDTVAPVSSHASPFYNSIPSSTDKAYLEINGGDHFCANSGNSNKAILGKYGVAWMKRFLDNDTRYSPFLCGAPHQADLSGSAISEYRDNCPY
B9: unnamed (protein)
chain: MRKISFKASLFSTLTLLASSITYAGGGGGNGGNNNGGLPAPDTCEVNCGYNQGSNPSLNSLQSTRGNFSVATSNVPRSVPGFGGGTIYYPRNTSGELATIAIAPGFTAPQDAISWWGPVLASNGFVVITIDTNSRLDQPISRGRQLDSALSYLISQGNSSNSPISGMVDENRLASMGHSMGGGGALRSASRNRLSAAIPLAPFNVGGNSFNDIEVPTMIMACENDGTAPVNIHASPFYNRIPSSTDKALIELDNGNHSCANGGSGRNNAVLATYGVSWMKRFLDKDQRFIPFLCGPNHEANRGISDYRD
B10: unnamed (protein)
chain: MDPSLKRALGLVVALTAAMLFSASASAQNPPPDDDPEPCQTDCDDGGNGGYTRGPDPTDSYLEASSGPYNVATSNVSSFVSGFGGGTIHYPTNTSGSMGGIVVIPGYVSYESSIEWWGPRLASHGFVVMTIDTNSIYDQPGSRKDQIDAALDYLVGQSNASSSAISGMVDGDRLAAVGWSMGGGGTLQLAAEPGRLKAAMPLAPWNSSFNDFDQIQTPTLIFACESDAVAPVSSHASPFYNDIPDATDKAFFEMNNGSHTCANGGNAYDELLGKYGVSWMKLHLDEDQRYEQFLCGPNHESEYQVS
B11: unnamed (protein)
chain: MNSRRASRLARAALAAGALLLSAAALATSNPYQRGPDPTAASLEASRGPFAVSSFTVSRPSGFGAGTVYYPTNAGGTVGAIAVVPGFTARQSSINWWGPRLASHGFVVITIDTNSTSDQPASRATQLMAALRQVVTLSGTSSSPIYNKVDTSRLGVMGWSMGGGGTLIAARNNPTLKAAVPLAPWNSSTNFSSVTVPTLIIACENDTVAPVSSHASPFYNSMTRTEKAYLEINGGSHSCANSGNSNQALLGKYGVAWMKRFMDNDTRYSSFLCGAPHSADLSSKSAISEYRENCPY
B12: unnamed (protein)
chain: MIMKNIDRRLRHCAVGLGLLLLAAVAQAQTNPLAKGPDPTSDLLNATAGPFAVATTSVSSSVSGFGGGTVYYPTASGSYATVAVCPGFTATQSSIAWIGRRMASHGFVVMTINTNSTLDQPPSRATQLMAALRYLTNSSNSTVRARVDANRLGVAGHSMGGGGTLMAARDNPTLKAAVPMTPWSQTKSFSTVRVPTLIVGAENDSVAPVASHSIPFYTSLSGSLDKAYAELNNASHFAPNSTNTPIGRYSVAWVKRFMDNDTRY
B13: unnamed (protein)
chain: MKFQRFLQATVLAGATLLSFGAAAIEIGPAPTKASLEASRGPFSVGQFTVSRPSGYGAGTVYYPTNAGAKVGAIAIVPGFVSYQSSIAWWGPRLASHGFVVITIDTNTTVDQPDSRSRQQLAALDQVIALSKTSSSPIYNKVDENRTGVMGWSMGGGGSLISAKNRPSIKAAAPQAPWNSSTNFSSVTVPTLIFACQSDIVAPVAQHASPFYNSITRAPKQYLEKTLGDHFCFNSANATVGLKGVAWMKRFIDGDTRYTSFACSNPNALGFSDFRTARCS
B14: unnamed (protein)
chain: MAKDRAGDVAAAKLNKSHLRGSPMEITQRGARILGTKCAASLGLLLLAATAAHAQSNPYAKGPDPTSSSLNASAGPFSVATSSVSSLAAVGFGSGTVYYPTTAGSYAAIAISPGFTATESSIAWLGRRVATHGFVVITINTNSTLDQPPSRATQLMAALRYLTNSSSSTVRSRIDTTRLGLAGHSMGGGGTLIAARDNPSLKAAVPLTAWSVTKSFSTMRVPTLVVGAENDSIASVSSHSIPFYNSLPSSLSKAYAELNGASHFAPNTTNTPIGRYTVAWVKRFMDNDTRYSPFLCGSPHDSYATGLVFSDYRDNCPY
B15: unnamed (protein)
chain: MERKNSRRSWAIGLGLLVLAATSAHAQTNPYQKGPDPTSASLNATSGSFSVATSSVSSAVSGFGGGTIYYPTTTGTYAVLAISPGFTATQSSIAWLGRRIATHGFVVITIDTNSTLDQPPSRATQLMAALNYVTNSSSATVRAKVDASRRGVAGHSMGGGGTLYAARDNPSLKAAVPLTAWSTLKSFSSVQVPTLVVGAESDSIAPVSSHSIPFYNSLSGSLDKAYAELNGASHLAPNSTNTPIGRYSVAWVKRFMDNDTRYTPFLCGTPHT

Substrate in the series: BHET
The following applies: 120 h.
In the case of B1, the plate clearing entry is “clears the plate (z > 3 vs empty vector)”. With B2, the plate clearing entry is listed as “not clears the plate”. Regarding B3, the plate clearing entry was “not clears the plate”. In the case of B4 it was “not clears the plate”; in that of B5, “not clears the plate”. Regarding B6, the plate clearing result was “not clears the plate”. On to B7, for which the plate clearing result is recorded as “not clears the plate”. On to B8, for which the plate clearing entry is “clears the plate (z > 3 vs empty vector)”. As for B9, the plate clearing result is recorded as “not clears the plate”. Take B10: the plate clearing entry was “not clears the plate”. B11: the plate clearing result was “clears the plate (z > 3 vs empty vector)”. In the case of B12 it was “not clears the plate”; in that of B13, “not clears the plate”; in that of B14, “not clears the plate”.

Take B15: the plate clearing entry is on record as “not clears the plate”.
